According to patent publication US20140302123A1:

Target: PTPN4 as expressed in U373MG cells (human) (UniProt P29074)
Experiment: cell-based or functional assay

Chain of PTPN4 as expressed in U373MG cells (human) (P29074 whole entry): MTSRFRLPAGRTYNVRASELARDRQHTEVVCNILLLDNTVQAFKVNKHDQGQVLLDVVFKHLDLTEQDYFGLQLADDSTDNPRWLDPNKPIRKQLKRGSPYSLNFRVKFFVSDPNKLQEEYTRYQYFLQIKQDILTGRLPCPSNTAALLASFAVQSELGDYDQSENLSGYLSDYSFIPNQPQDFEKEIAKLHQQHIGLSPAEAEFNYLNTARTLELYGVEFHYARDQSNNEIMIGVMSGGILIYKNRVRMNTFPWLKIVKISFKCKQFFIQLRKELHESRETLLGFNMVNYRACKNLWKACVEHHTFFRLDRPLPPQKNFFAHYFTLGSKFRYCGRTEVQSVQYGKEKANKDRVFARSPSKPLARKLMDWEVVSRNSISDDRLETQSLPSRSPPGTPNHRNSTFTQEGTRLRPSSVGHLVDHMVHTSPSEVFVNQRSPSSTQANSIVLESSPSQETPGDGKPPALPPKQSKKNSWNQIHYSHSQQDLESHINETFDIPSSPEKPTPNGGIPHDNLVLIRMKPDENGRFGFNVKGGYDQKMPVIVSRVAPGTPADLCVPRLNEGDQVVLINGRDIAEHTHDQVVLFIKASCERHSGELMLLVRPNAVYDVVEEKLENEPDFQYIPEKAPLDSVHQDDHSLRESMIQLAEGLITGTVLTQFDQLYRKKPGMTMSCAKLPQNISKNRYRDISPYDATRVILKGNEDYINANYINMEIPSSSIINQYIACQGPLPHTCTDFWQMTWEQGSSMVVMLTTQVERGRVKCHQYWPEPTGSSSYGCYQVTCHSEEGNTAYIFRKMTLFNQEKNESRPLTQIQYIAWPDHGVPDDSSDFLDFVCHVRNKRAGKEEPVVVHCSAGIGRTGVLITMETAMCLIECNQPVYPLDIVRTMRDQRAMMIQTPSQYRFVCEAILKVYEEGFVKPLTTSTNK

## Tat-conjugated, FITC-labelled GluN2A-16 (peptide)
  cell death (% of dead cells among peptide loaded cells), U373MG, 3 h, 25 microM, propidium iodide: 29%
